According to patent US20180148477A1 (published 2018):
Several values for one entry are separate records, joined by “and”; a condition that tells them apart may be missing. Equal entries are not always repeated. Each block holds one binder with its values, some of them ahead of it. Bridge positions count the residues as written; N and C are the ends. Square brackets hold non-standard residues; d marks the D form. Ends that are not written are not given here. Phe(4-tBu) = CC(C)(C)c1ccc(C[C@H](N)C(=O)O)cc1; Bip = N[C@@H](Cc1ccc(-c2ccccc2)cc1)C(=O)O; 1Nal = N[C@@H](Cc1cccc2ccccc12)C(=O)O; 2Nal = N[C@@H](Cc1ccc2ccccc2c1)C(=O)O; NMeR = CN[C@@H](CCCNC(=N)N)C(=O)O; Tic = O=C(O)[C@@H]1Cc2ccccc2CN1; β3hE = N[C@@H](CCC(=O)O)CC(=O)O; NMeK = CN[C@@H](CCCCN)C(=O)O; Pen = CC(C)(S)[C@H](N)C(=O)O; dNMeK = CN[C@H](CCCCN)C(=O)O

How the values were obtained:
[1] = molecular target: mouse α4β7 integrin on TK1 cells (mouse) (UniProt Q00651); test: TK1 adhesion to MAdCAM-1
mouse α4β7 integrin on TK1 cells (mouse), sequence (Q00651 41-1039, chain 1 of 2): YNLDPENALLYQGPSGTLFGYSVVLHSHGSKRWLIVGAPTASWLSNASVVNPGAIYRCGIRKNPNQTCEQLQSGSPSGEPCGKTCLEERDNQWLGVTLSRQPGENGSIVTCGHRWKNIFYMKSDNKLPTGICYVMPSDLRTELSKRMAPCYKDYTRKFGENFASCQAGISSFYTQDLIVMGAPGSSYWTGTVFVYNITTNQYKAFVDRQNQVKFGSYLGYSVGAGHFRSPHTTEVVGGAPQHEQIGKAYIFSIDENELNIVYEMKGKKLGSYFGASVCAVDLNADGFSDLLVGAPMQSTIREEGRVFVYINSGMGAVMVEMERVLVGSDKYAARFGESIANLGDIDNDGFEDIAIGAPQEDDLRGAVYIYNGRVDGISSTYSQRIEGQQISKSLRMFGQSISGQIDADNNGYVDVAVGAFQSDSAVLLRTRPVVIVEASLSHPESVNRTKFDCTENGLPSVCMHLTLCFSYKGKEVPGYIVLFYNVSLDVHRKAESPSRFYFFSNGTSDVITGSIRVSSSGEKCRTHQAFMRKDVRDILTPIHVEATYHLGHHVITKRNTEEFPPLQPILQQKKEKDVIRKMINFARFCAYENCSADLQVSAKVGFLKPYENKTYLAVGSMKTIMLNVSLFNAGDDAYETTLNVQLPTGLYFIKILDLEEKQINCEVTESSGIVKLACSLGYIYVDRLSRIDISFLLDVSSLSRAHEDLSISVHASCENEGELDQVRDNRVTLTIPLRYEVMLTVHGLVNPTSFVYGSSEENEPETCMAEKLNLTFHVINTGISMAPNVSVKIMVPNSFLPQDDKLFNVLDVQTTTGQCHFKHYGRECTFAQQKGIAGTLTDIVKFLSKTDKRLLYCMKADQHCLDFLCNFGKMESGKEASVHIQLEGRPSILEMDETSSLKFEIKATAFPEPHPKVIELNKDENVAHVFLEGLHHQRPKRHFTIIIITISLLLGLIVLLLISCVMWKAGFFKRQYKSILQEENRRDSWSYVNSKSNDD
mouse α4β7 integrin on TK1 cells (mouse), sequence (P26011 20-806, chain 2 of 2, further chain): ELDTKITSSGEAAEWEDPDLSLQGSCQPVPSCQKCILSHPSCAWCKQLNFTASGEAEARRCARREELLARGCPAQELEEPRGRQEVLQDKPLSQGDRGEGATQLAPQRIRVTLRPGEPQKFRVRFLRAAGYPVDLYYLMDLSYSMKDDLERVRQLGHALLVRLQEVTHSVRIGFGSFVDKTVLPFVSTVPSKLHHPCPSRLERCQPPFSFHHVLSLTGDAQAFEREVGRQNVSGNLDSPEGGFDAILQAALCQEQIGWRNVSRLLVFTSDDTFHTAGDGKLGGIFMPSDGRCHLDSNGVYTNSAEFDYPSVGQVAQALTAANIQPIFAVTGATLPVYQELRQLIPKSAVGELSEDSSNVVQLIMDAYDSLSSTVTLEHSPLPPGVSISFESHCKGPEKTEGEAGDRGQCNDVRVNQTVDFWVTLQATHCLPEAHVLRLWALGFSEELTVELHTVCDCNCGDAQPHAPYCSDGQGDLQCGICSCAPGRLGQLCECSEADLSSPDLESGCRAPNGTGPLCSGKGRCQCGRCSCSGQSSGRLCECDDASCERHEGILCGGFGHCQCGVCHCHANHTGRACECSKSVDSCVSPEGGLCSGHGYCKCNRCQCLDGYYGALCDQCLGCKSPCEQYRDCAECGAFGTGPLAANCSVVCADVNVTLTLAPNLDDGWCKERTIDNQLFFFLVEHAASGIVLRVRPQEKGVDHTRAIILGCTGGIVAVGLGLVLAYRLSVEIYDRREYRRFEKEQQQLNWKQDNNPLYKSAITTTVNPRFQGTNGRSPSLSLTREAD

[2] = molecular target: α4β1 (R&D Systems #5668-A4) (UniProt P13612); test: competition ELISA vs VCAM-1
[3] = molecular target: human α4β7 integrin on cells (human) (UniProt P13612); test: RPMI8866 adhesion to MAdCAM-1
[4] = molecular target: rh integrin α4β7 (R&D Systems #5397-A30) (human) (UniProt P13612); test: competition ELISA vs MAdCAM-1
[5] = molecular target: human α4β7 integrin on cells (human) (UniProt P13612); test: FACS, human whole blood, 1 mM MnCl2; CD19+ B cells
[6] = molecular target: human α4β7 integrin on cells (human) (UniProt P13612); test: FACS, human whole blood, 1 mM MnCl2; Eosinophils
[7] = molecular target: human α4β7 integrin on cells (human) (UniProt P13612); test: FACS, human whole blood, 1 mM MnCl2; NK cells CD16+ 56+
[8] = molecular target: human α4β7 integrin on cells (human) (UniProt P13612); test: FACS, human whole blood, 1 mM MnCl2; Monocytes
[9] = molecular target: human α4β7 integrin on cells (human) (UniProt P13612); test: FACS, human whole blood, 1 mM MnCl2; Basophils
[10] = molecular target: human α4β7 integrin on cells (human) (UniProt P13612); test: FACS, human whole blood, 1 mM MnCl2; CD8 naïve T cells
[11] = molecular target: human α4β7 integrin on cells (human) (UniProt P13612); test: FACS, human whole blood, 1 mM MnCl2; CD4 memory T cells
[12] = molecular target: human α4β7 integrin on cells (human) (UniProt P13612); test: FACS, human whole blood, 1 mM MnCl2; CD8 memory T cells
[13] = molecular target: rh integrin α4β7 (R&D Systems #5397-A30) (human) (UniProt P13612); test: SPR, biotin antibody on streptavidin chip, soluble α4β7
[14] = molecular target: human α4β7 integrin on cells (human) (UniProt P13612); test: FACS, human whole blood, 1 mM MnCl2; CD4 naïve T cells
[15] = molecular target: human α4β7 integrin on cells (human) (UniProt P13612); test: FACS, human whole blood, 1 mM MnCl2; Neutrophils
[16] = molecular target: human α4β7 integrin on cells (human) (UniProt P13612); test: PBMC memory T cell adhesion
[17] = molecular target: T1, rh integrin α4β7 (R&D Systems #5397-A30) (human, UniProt P13612 34-970; P26010 20-723); test: competition ELISA vs MAdCAM-1
T1 construct: Bought recombinant heterodimer, coated on a nickel plate; also called immobilized α4β7; soluble α4β7 integrin

[18] = molecular target: T1, rh integrin α4β7 (R&D Systems #5397-A30); test: SPR, biotin peptide on streptavidin chip, soluble α4β7

Binder: Ac-[Pen][NMeR]SDTL[Pen][Tic][β3hE]-NH2 (disulfide 1-7 (inferred)) [SEQ ID NO: 154]
IC50 [1]: > 1000 nM
IC50 [2]: > 1000 nM
IC50 [3]: > 100 nM

B1: Vedolizumab-biotin (antibody, INN chains, looked up, V domains shown)
VH: QVQLVQSGAEVKKPGASVKVSCKGSGYTFTSYWMHWVRQAPGQRLEWIGEIDPSESNTNYNQKFKGRVTLTVDISASTAYMELSSLRSEDTAVYYCARGGYDGWDYAIDYWGQGTLVTVSS
VL: DVVMTQSPLSLPVTPGEPASISCRSSQSLAKSYGNTYLSWYLQKPGQSPQLLIYGISNRFSGVPDRFSGSGSGTDFTLKISRVEAEDVGVYYCLQGTHQPYTFGQGTKVEIKR
modifications: biotin label
Percent positive staining [5]: 85%
Percent positive staining [6]: 91%
Percent positive staining [7]: 42%
Percent positive staining [8]: 7%
Percent positive staining [9]: 86%
Percent positive staining [10]: 53%
Percent positive staining [11]: 22%
Percent positive staining [12]: 36%
Half-life for dissociation [13]: 0.717 h
Kd [13]: 59.5 nM
koff [13]: 0.000266 s⁻¹
kon [13]: 4470 M⁻¹ s⁻¹
Percent positive staining [14]: 55%
Percent positive staining [15]: 0.45%

Binder: Ac-[Pen][NMeR]SDTL[Pen][1Nal][β3hE][NMeK]-NH2 (disulfide 1-7 (inferred); also: dimer via DIG linker) [SEQ ID NO: 142]
IC50 [4]: < 10 nM
IC50 [2]: > 500 nM
IC50 [16]: > 50 nM
IC50 [3]: < 10 nM

B2: Peptide 210 (peptide)
peptide: Ac-[Pen][NMeR]SDTL[Pen][2Nal]E[dK]-NH2
modifications: disulfide 1-7
SMILES: CC(=O)N[C@@H]1C(=O)N(C)[C@@H](CCCNC(=N)N)C(=O)N[C@@H](CO)C(=O)N[C@@H](CC(=O)O)C(=O)N[C@@H]([C@@H](C)O)C(=O)N[C@@H](CC(C)C)C(=O)N[C@H](C(=O)N[C@@H](Cc2ccc3ccccc3c2)C(=O)N[C@@H](CCC(=O)O)C(=O)N[C@H](CCCCN)C(N)=O)C(C)(C)SSC1(C)C
IC50 [1]: 60 nM
IC50 [4]: 11 nM
IC50 [2]: 200 nM
IC50 [16]: 517 nM
IC50 [3]: 40 nM

B3: Peptide X-biotin (peptide)
peptide: Ac-[Pen][NMeR]SDTL[Pen][Phe(4-tBu)][β3hE][dK]
modifications: disulfide 1-7 (inferred); also: biotin attached via PEG linker, site not given here, dimer of two subunits joined by DIG linker, as Peptide X
half-life for dissociation [18]: 11.1 h and ~11 h

Binder: Ac-[Pen][NMeR]SDTL[Pen][2Nal][β3hE]-NH2 (disulfide 1-7 (inferred)) [SEQ ID NO: 155]
IC50 [1]: > 25 nM
IC50 [2]: > 1000 nM
IC50 [3]: > 25 nM

Binder: Ac-[Pen][NMeR]SDTL[Pen][2Nal]E[dNMeK]-NH2 (disulfide 1-7; also: dimer via DIG) [SEQ ID NO: 41]
IC50 [4]: < 10 nM
IC50 [2]: > 100 nM
IC50 [3]: < 10 nM

Binder: Ac-[Pen][NMeR]SDTL[Pen][Bip][β3hE][NMeK]-NH2 (disulfide 1-7 (inferred); also: dimer via DIG linker) [SEQ ID NO: 150]
IC50 [1]: < 10 nM
IC50 [4]: < 10 nM
IC50 [2]: > 1000 nM
IC50 [3]: < 10 nM

Further lines, results first:

IC50 [1]: < 10 nM
IC50 [4]: < 10 nM
IC50 [2]: > 100 nM
IC50 [3]: < 10 nM
Binder: Ac-[Pen][NMeR]SDTL[Pen][1Nal]E[dNMeK]-NH2 (disulfide 1-7; also: dimer via DIG) [SEQ ID NO: 44]

IC50 [1]: 2.5 nM
IC50 [4]: 2 nM
IC50 [2]: 70 nM
IC50 [3]: 2.5 nM
Binder: Ac-[Pen][NMeR]SDTL[Pen][2Nal]E[dK]-NH2 (disulfide 1-7; also: dimer via DIG, attachment site not given here) [Peptide 212]

IC50 [17]: > 1000 nM
Binder: Ac-[Pen][NMeR]S[Prop acid]TL[Pen]WE[dK]-NH2 (disulfide 1-7) [SEQ ID NO: 47]

IC50 [4]: < 10 nM
IC50 [2]: > 100 nM
IC50 [3]: < 10 nM
Binder: Ac-[Pen][NMeR]SDTL[Pen][1Nal][dE][dNMeK]-NH2 (disulfide 1-7; also: dimer via DIG) [SEQ ID NO: 38]

IC50 [4]: < 10 nM
IC50 [2]: > 100 nM
IC50 [3]: > 10 nM
Binder: Ac-[Pen][NMeR]SDTL[Pen][2Nal][dE][dK]-NH2 (disulfide 1-7; also: dimer via DIG) [SEQ ID NO: 33]
